Molecular target: Fas receptor on primary mouse thyroid follicular cells (TFC) (mouse) (UniProt P25446)
Experiment: cell-based or functional assay

Sequence of UniProt P25446 (P25446 22-327): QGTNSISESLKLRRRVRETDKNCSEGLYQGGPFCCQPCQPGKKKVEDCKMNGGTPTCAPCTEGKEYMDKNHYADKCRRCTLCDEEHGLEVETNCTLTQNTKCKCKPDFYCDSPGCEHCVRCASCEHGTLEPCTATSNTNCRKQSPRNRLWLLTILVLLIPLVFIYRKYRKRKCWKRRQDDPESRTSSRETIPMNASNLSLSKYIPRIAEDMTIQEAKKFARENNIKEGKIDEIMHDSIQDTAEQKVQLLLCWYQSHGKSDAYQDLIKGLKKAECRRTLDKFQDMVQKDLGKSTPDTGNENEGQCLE

## clone Jo2 anti-Fas antibody
  percentage of proliferation increase of anti-Fas versus control cultures ([3H] thymidine), 48h: 37%
  percentage of proliferation increase of anti-Fas versus control cultures ([3H] thymidine), 72h: 49%
  percentage of proliferation increase of anti-Fas versus control cultures ([3H] thymidine), 96h: 61%
  proliferation of anti-Fas treated TFC ([3H] thymidine, mean cpm of six wells): 392 to 1510 cpm

From patent EP1324044A1
